Assay [1] addresses T1, human IL-23R expressed on the cell surface of stably transfected iLite and HEK cell lines (human, UniProt Q5VWK5 24-629).
T1 construct: whole, on cells; Same receptor on two transfected cell lines; the cell line is named under assay; also called human IL-23R iLite cells; human IL-23R HEK cells
T1 sequence (looked up): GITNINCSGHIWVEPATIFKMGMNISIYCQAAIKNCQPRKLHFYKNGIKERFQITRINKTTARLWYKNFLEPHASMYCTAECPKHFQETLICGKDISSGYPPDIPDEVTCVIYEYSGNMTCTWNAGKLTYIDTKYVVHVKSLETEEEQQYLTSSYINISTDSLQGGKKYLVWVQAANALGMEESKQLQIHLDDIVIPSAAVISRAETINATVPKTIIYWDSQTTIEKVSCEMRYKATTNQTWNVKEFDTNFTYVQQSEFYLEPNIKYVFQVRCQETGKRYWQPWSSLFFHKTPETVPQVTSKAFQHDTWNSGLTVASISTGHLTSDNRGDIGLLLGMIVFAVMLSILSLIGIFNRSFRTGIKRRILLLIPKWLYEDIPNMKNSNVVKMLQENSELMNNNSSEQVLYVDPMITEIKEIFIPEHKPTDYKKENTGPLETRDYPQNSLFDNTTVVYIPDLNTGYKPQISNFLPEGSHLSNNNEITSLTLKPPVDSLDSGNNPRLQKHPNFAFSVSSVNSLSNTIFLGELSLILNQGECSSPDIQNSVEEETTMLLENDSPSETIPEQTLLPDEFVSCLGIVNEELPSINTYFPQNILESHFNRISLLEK
Nature of the assay: flow cytometry on human IL-23R HEK cells, Expt D (8-point, 96well). In outline:
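Serially diluted IL-23R mAbs bound to mixed HEK-IL-23R and parental HEK cells for 30 min at 37 °C, in duplicate. After washes, 647 detection antibody geometric MFI measured on single viable (Sytox Green-negative) cells and fitted to a variable-slope dose-response against log mAb concentration.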

The target of assay [2] is T1, human IL-23R expressed on the cell …. Nature of the assay: flow cytometry on human IL-23R HEK cells, Expt E (11-point, 384well). In outline:
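Antibody bound to HEK-IL-23R cells 30 min at 37 °C over 11 concentrations; after washes, Sytox Green added and cells run on iQue. Geometric MFI of 647 detection antibody on single viable cells fitted by variable-slope dose–response.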
(In general: A flow cytometer gives signals particle by particle.)

B1: I23RB173 (antibody, mouse IgG2a, kappa, V domains shown)
VH: DVQLQESGPGLVKPSQSLSLTCSVTGYSITSGYYWNWIRQFPGNKLEWMGYISYDGGNNYNPSLKNRISITRDTSKNQFFLKLNSVTTEDTATYYCARDAGLLPYYAMDYWGQGTTLTVSS
VL: DIKMTQSPAIMSASPGEKVTITCSASSSVSYMHWFQQKPGTSPKLWIYSTSNLASGVPARFSGSGSGTSYSLTISRMEAEDAATYYCQQRSSYPLTFGDGTKLEMKR
notes: immunization; mouse IgG2a/kappa
On to B1, for which the EC50 (in general, the concentration needed to bring the measured effect to its halfway point) in assay [1] was 0.4 nM. Moreover, in assay [2], the EC50 came out at 7.4 nM and the “MFI (6.4 nM)” value stood at 100000 MFI.

B2: I23RB36 (antibody, mouse IgG2a, kappa, V domains shown)
VH: QIQLVQSGAELVKPGASVKLSCTTSGFNIKDTYIHWMKQRPEQGLEWIGRIDPANGNTIYASKFQGKATLTTDTSSNTAYMLLSSLTSGDTAVYYCTRGTSWFAYWGQGTTVTVSS
VL: DIVMTQSPKSMSMSVGERVTLSCKASENVGTSVSWFQQKPEQSPKLLIYGASNRYTGVPDRFTGSGSATDFTLTISSVQAEDLADYHCGQSYSYPRTFGGGTKLEIKR
notes: as for B1
Regarding B2, the EC50 in assay [1] worked out at 0.4 nM; in assay [2] it was 7.3 nM. Also, the “MFI (6.4 nM)” value in assay [2] was 171000 MFI.

B3: I23RB27 (antibody, mouse IgG2a, kappa, V domains shown)
VH: QVQLKESGPDLVQPSQTLSLTCTVSGFSLTSYGVHWVRQPPGKGLEWVGTLGWDDKKSYNSALKSRLSISRDTSKSQVFLKLSSLQTEDTAMYYCTKEDVSYAMDFWGQGTTLTVSS
VL: DIQMTQSPTSLAVSLGQRATISCRASESVEYYGTSLMHWYQQKPGQPPKLLIYAASNVESGVPARFSGSGSGTDFSLNIHPVEEEDIAMYFCQQGKKVPWTFGAGTKLEMKR
notes: as for B1
In the case of B3, the EC50 in assay [1] was 3.5 nM; in assay [2], more than 50 nM. Further, in assay [2], the “MFI (6.4 nM)” value was 153000 MFI.

B4: I23RB166 (antibody, mouse IgG2a, kappa, V domains shown)
VH: DVQLQESGPGLVKPSQTVSLTCTVTGYSITNGNHWWNWIRQVSGSKLEWIGYIRSSGSTDSNPSLKSRISITRDTSKNQLFLQLNSVTAEDIATYYCARERLRLRWSYFDYWGQGTTLTVSS
VL: DIVMTQSHKFMSTSVGARVSITCKASQDVSTAVAWYQQKPGQSPKLLIYSASYRYTGVPDRFTGSGSGTDFTFTISSVQAEDLAVYYCQQHYSTPRTFGGGTKLEIKR
notes: as for B1
In turn, B4 registered an EC50 in assay [1] of 0.3 nM. For the same molecule, in assay [2], the EC50 is 11.6 nM and the “MFI (6.4 nM)” value worked out at 198000 MFI.

B5: I23RB156 (antibody, mouse IgG2a, kappa, V domains shown)
VH: QVQLKESGPGLVAPSQSLSITCTVSGFSLTSYAINWVRQPPGKGLEWLGVIWTGGGTNYNSVFKSRLSISKDNSKSQIFLKMISLQTDDTARYYCARNRDYSNYRWYFDVWGAGTTLTVSS
VL: DIVMTQSHKFMSTSVGDRVSITCKASQDVSTAVAWYQQKPGRSPKLLIYSAFYRYTGVPDRFTGSGSGTDFTFTIGSVQAEDLAVYYCQQHYSIPLTFGAGTKLELKR
notes: as for B1
On to B5, for which, in assay [1], a half-maximal effect (EC50) was put at 0.4 nM. Moreover, in assay [2], a half-maximal effect (EC50) was put at 8.9 nM and the “MFI (6.4 nM)” value came out at 174000 MFI.

B6: I23RB160 (antibody, mouse IgG2a, kappa, V domains shown)
VH: QVQLKESGPDLVKPSQSLSLTCTVTGYSITSGYNWHWIRQFPGNKLEWMGYIHYSSGTIYNPSLKSRISITRDTSKNQFFLQLNSVTTEDTGTYYCARQLGLKAMDYWGQGTSVTVSS
VL: DIVMTQSHKFMSTSVGDRVSITCKASQDVRTAVAWYQQKPGQSPKLLIHSASYRYTGVPDRFTGSGSGTDFTFTISSVQVEDLAVYYCQQHYTTPYTFGSGTKLEIKR
notes: as for B1
In turn, B6 had an EC50 in assay [1] of 0.4 nM. In addition, in assay [2], the concentration for a half-maximal effect (EC50) came out at 5.6 nM and the “MFI (6.4 nM)” value amounted to 185000 MFI.

B7: I23RB150 (antibody, mouse IgG2a, kappa, V domains shown)
VH: QIQLVQSGPELKKPGETVKISCKASAYTFTNYGMNWVKQAPGKGLKWMGWIKTNTGEPTYAEEFKGRFAFSLETSASTAYLQINNLKNEDTATYFCARSRQLGLRYYFDYWGQGTTLTVSS
VL: DIVMTQSHKFMSTSVGGRVSITCKASQDVSTAVAWYQQKPGQSPRLLIYSASYRYTGVPDRFTGSGSGTDFTFTISSVQAEDLAVFYCQQHYSTPYTFGSGTRLEIKR
notes: as for B1
Regarding B7, the concentration for a half-maximal effect (EC50) was 0.8 nM in assay [1] and 16.2 nM in assay [2]. Further, the “MFI (6.4 nM)” value in assay [2] turned out to be 103000 MFI.

B8: I23RB162 (antibody, mouse IgG2a, kappa, V domains shown)
VH: EFQLQQSGPELVKPGASVKMSCKASGYTFTNYVMHWVKQKPGQGLEWIGYINPYNDGTKYNEKFKGKATLTSDKSSSTAYMELSSLTSEDSAVYYCARSRTGTRWYFDVWGAGTTVTVSS
VL: DIVMTQSQKFMSTSVGDRVSVTCKASQNVGTNVAWYQQKPGQSPKALIYSASYRYSGVPDRFTGSGSGTDFTLTISNVQSEDLAEYFCQQYNSYPFTFGSGTKLEIKR
notes: as for B1
For the molecule B8, the EC50 in assay [1] stood at 0.1 nM; in assay [2] it was 2.8 nM. Besides, in assay [2], the “MFI (6.4 nM)” value stood at 269000 MFI.

B9: I23RB169 (antibody, mouse IgG2a, kappa, V domains shown)
VH: QIQLVQSGPELKKPGETVKISCKASGYTFTTVGMQWVQKMPGKGFKWIGWINTHSGEPKYTDDFKGRFAFSLETSASTAYLQISNLKSEDTATYFCARSSALTGAFAYWGQGTLVTVSS
VL: DIKMTQSPASLAVSLGQRATISCRASKSVSTSDYSYMHWYQQKPGQPPKLLIYLASNLESGVPARFSGSGSGTDFTLNIHPVEEEDAATYYCQHSRELPRTFGAGTKLELKR
notes: as for B1
Regarding B9, the figures for the EC50 in assay [1] and in assay [2] were 0.7 nM and 15.4 nM, respectively. In assay [2], the “MFI (6.4 nM)” value was 132000 MFI.

B10: I23RB165 (antibody, mouse IgG2a, kappa, V domains shown)
VH: EVQLQQSGAELVRPGASVKLSCTASGFNIKDSLMHWVKQRPEQGLEWIGWIDPEDGKTKYAPKFQDKATITADTSSNTAYLQLSSLTSEDTAIYYCARREVLDYFDYWGQGTTLTVSS
VL: DIVMTQSPASLAVSLGQRATISCRASKSVSTSGYSYMHWYQQKPGQPPKLLIYLASNLESGVPARFSGSGSGTDFTLNIHPVEEEDAATYYCQHSRELPLTFGAGTKLEMKR
notes: as for B1
In the case of B10, the EC50 in assay [1] was determined as 0.6 nM. In assay [2], the EC50 worked out at 9.7 nM and the “MFI (6.4 nM)” value was determined as 116000 MFI.

B11: I23RB168 (antibody, mouse IgG2a, kappa, V domains shown)
VH: QIQLVQSGPELVKPGASVKMSCKTSGYTFTDYYINWVKQRPGQGLEWIGWIYPAINNTNYNEKFKGKATLTVDTSSRTAYMQLNSLTSEDSAVYFCAISRKPYFDYWGQGTTLTVSS
VL: DIQMTQSSSSFSVSLGDRVTITCKASEDLYNRLAWYQQKPGNAPRLLISGATSLGTGVLSRFSGSGSGKDYTLSITSLQTEDVATYYCQQYWSIPWTFGAGTKLELKR
notes: as for B1
In turn, B11 displayed an EC50 in assay [1] of 3.4 nM. In assay [2], a half-maximal effect (EC50) was put at 22.1 nM and the “MFI (6.4 nM)” value was determined as 73000 MFI.

B12: I23RB182 (antibody, mouse IgG2a, kappa, V domains shown)
VH: EVQLQQSGPGLVKPSQSLSLTCSVTGYSITSGYFWNWLRQFPGSKLEWMGFIDNDGSNDYNPSLKNRISITRDTSKNQFFLRLNSVTTEDTATYYCARGRLGFFDSWGPGTTLTVSS
VL: DIVMTQSPAIMSASLGEKVTMSCRASSSVNYMYWYQQKSDASPKLWIYYTSNLAPGVPARFSGSGSGNSYSLTISSMEGEDAATYYCQQFTNSPWTFGAGTKLELKR
notes: as for B1
For the molecule B12, in assay [1], the EC50 came out at 36.4 nM. In assay [2], the EC50 is more than 50 nM and the “MFI (6.4 nM)” value came to 26200 MFI.

B13: I23RB31 (antibody, mouse IgG2a, kappa, V domains shown)
VH: EFQLQQSGAEMVRPGASVKLSCKASGYTFTGYWMNWVKQRPGQGLEWIGKIDPSDTETHYNQNFKDKATLTVDKSSSTAYMQLNSLTSEDSAVYYCARWGLGRNFAMDYWGQGTTLTVSS
VL: DIVLTQSPATLSVTPGDRVSLSCRASQSISDHLHWYQQKSHESPRLLIKFASQSISGIPSRFSGSGSGSDFTLSIDSVEPEDVGVYYCQNGHSFPLTFGSGTKLEIKR
notes: as for B1
For the molecule B13, the EC50 is 1.7 nM in assay [1] and more than 50 nM in assay [2]. Besides, the “MFI (6.4 nM)” value in assay [2] worked out at 78600 MFI.

B14: I23RB188 (antibody, mouse IgG2a, kappa, V domains shown)
VH: QIQLVQSGPELKKPGETVKISCKASGYTFTNYGMNWVKQAPGKGLKWMGWINTYTGAPTYADDFKGRFAFSLETSASTAYLQINNFKNEDTATYFCARGNGYPYYYGINYWGQGTSVTVSS
VL: DVQMIQSPSSLSASLGERVSLTCRASQEISGNLSWLQQKPDGTIKRLIYAASTLDSGVPKRFSGSRSGSDYSLTISSLESEDFADYYCLQYASYPWTFGAGTRLEIKR
notes: as for B1
With B14, the EC50 in assay [1] came to 2 nM. Further, in assay [2], the EC50 was more than 50 nM and the “MFI (6.4 nM)” value was 90100 MFI.

B15: I23RB155 (antibody, mouse IgG2a, kappa, V domains shown)
VH: QVQLKESGPGLVKPSQSLSLTCSVTGYSITSGHSWNWIRQFPGNKLEWMGYISYDGTNDYNPSLKNRISITRDTSKNQFFLNLNSVTTEDTVTYYCARGGGYYGGTYRVFADWGQGTTLTVSS
VL: QIVLSQSPASLAVSLGQRATISCRTSESVDTYGNSFIYWYQQKPGQPPKLLIYRASNLESGIPARFSGSGSRTDFTLTINPVEADDVATYYCQQGNKDPYTFGSGTKLEMKR
notes: as for B1
For the molecule B15, in assay [1], the EC50 was found to be 0.9 nM. Besides, in assay [2], the EC50 is 10.1 nM and the “MFI (6.4 nM)” value turned out to be 177000 MFI.

For the origin of these results see US20250179196A1 (Janssen / Centocor, published 2025).
